Test results reported in PMC4857006.

Assays:
mTdp2cat [1] = target: T1, mTdp2cat (Mus musculus, UniProt Q9JJX7 118-370); assay: X-ray crystallography (1.55 A); product complex; Crystals: hTdp2cat-DNA in 90 mM Tris pH 7.0, 27% PEG600, 9% glycerol, 450 mM (NH4)2SO4; mTdp2cat-DNA as in ref 20. Proteolysis buffer not in the material. Trp f
T1 sequence: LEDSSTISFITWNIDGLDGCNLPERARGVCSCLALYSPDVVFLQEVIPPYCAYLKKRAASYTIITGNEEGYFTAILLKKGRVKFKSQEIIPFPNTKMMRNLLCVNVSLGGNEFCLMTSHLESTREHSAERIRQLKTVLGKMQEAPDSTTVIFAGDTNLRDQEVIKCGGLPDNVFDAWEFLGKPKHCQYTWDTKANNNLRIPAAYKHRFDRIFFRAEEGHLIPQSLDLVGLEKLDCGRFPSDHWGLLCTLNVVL

hTdp2cat [2] = target: T2, hTdp2cat (Homo sapiens, UniProt O95551 108-362); assay: limited proteolysis protection (chymotrypsin); with or without Mg2+; Crystals: hTdp2cat-DNA in 90 mM Tris pH 7.0, 27% PEG600, 9% glycerol, 450 mM (NH4)2SO4; mTdp2cat-DNA as in ref 20. Proteolysis buffer not in the material. Trp f
T2 sequence: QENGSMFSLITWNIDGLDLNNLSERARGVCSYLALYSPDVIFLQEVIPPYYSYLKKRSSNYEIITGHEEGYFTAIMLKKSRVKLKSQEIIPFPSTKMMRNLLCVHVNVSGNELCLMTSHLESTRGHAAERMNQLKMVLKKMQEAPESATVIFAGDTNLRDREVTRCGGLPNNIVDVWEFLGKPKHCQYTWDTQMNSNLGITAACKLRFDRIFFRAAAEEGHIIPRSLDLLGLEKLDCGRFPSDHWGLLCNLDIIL

mTdp2cat [3] = target: T1, mTdp2cat; assay: limited proteolysis protection (trypsin, chymotrypsin); Mg2+; more protection than Mg2+ alone; Crystals: hTdp2cat-DNA in 90 mM Tris pH 7.0, 27% PEG600, 9% glycerol, 450 mM (NH4)2SO4; mTdp2cat-DNA as in ref 20. Proteolysis buffer not in the material. Trp f
mTdp2cat [4] = target: T1, mTdp2cat; assay: X-ray crystallography (1.43 A); Mg2+; product complex; Crystals: hTdp2cat-DNA in 90 mM Tris pH 7.0, 27% PEG600, 9% glycerol, 450 mM (NH4)2SO4; mTdp2cat-DNA as in ref 20. Proteolysis buffer not in the material. Trp f
mTdp2cat [5] = target: T1, mTdp2cat; assay: X-ray crystallography; Mn2+ soak (5 mM MnCl2); Crystals: hTdp2cat-DNA in 90 mM Tris pH 7.0, 27% PEG600, 9% glycerol, 450 mM (NH4)2SO4; mTdp2cat-DNA as in ref 20. Proteolysis buffer not in the material. Trp f
hTdp2cat [6] = target: T2, hTdp2cat; assay: X-ray crystallography (3.2 A); product complex; Crystals: hTdp2cat-DNA in 90 mM Tris pH 7.0, 27% PEG600, 9% glycerol, 450 mM (NH4)2SO4; mTdp2cat-DNA as in ref 20. Proteolysis buffer not in the material. Trp f

B1: 5'-P dA DNA (dsDNA)
DNA 1: ACGAATTCG
DNA 2: ACGAATTCG
modifications: 5'-phosphate
binding result (mTdp2cat [1]): binds

B2: 12nt DNA (dsDNA)
DNA 1: CATCCGAATTCG
DNA 2: CATCCGAATTCG
modifications: 5'-phosphate
binding result (hTdp2cat [2]): binds | binding result (mTdp2cat [3]): binds

B3: 5'-P epsilonA DNA (dsDNA)
DNA 1: ACGAATTCG
DNA 2: ACGAATTCG
modifications: 5'-phosphate; 5'-terminal A is 1-N6-ethenoadenine
binding result (mTdp2cat [4]): binds

B4: 5'-P dC DNA (dsDNA)
DNA 1: CCGAATTCG
DNA 2: CCGAATTCG
modifications: 5'-phosphate
binding result (mTdp2cat [5]): binds | binding result (hTdp2cat [6]): binds
